# Molecular target: human CD3 (TCR/CD3 complex) on T-cells (human) (UniProt P07766)
# Test: FACS staining of CD3+ Jurkat cells with polymer fractions
row,percent of Jurkat cells with positive staining,Substance
1,80%,scOKT3-γ?IgM monomers
2,> 90%,scOKT3-γ?IgM pentamers

# Molecular target: human CD3 (TCR/CD3 complex) on T-cells (human) (UniProt P07766)
# Test: cell-based or functional assay
Substance,IL-2 production,INF-γ-production,"T-cell proliferation, immobilized Ak [cpm × 10^3]","T-cell proliferation, soluble Ak [cpm × 10^3]",TNF-α-production
"scOKT3-γ?IgM, WT (from UniProt P01871 218-435) (Fc fusion)",47 pg/mL,244 pg/mL,4600 cpm,2600 cpm,167 pg/mL
"scOKT3-γ?IgM, WT Monomers (from UniProt P01871 218-435) (Fc fusion)",52 pg/mL,222 pg/mL,4000 cpm,1800 cpm,166 pg/mL

# Other lines, results leading:
IL-2 production,INF-γ-production,"T-cell proliferation, immobilized Ak [cpm × 10^3]","T-cell proliferation, soluble Ak [cpm × 10^3]",TNF-α-production,Substance
467 pg/mL,1380 pg/mL,12500 cpm,9500 cpm,960 pg/mL,monoclonal OKT3 antibody
65 pg/mL,202 pg/mL,3300 cpm,1900 cpm,149 pg/mL,"scOKT3-γ?IgM, C575S (from UniProt P01871 218-435) (Fc fusion)"
73 pg/mL,189 pg/mL,3700 cpm,2400 cpm,169 pg/mL,"scOKT3-γ?IgM, C575S Monomers (from UniProt P01871 218-435) (Fc fusion)"
42 pg/mL,232 pg/mL,3500 cpm,2100 cpm,158 pg/mL,"scOKT3-γ?IgM, WT Pentamers/hexamers (from UniProt P01871 218-435) (Fc fusion)"

# Molecular target: human CD3 (TCR/CD3 complex) on T-cells (human) (UniProt P07766)
# Test: FACS staining of CD3+ Jurkat cells
row,percent of Jurkat cells with positive staining,Substance
1,> 90%,monoclonal OKT3 antibody
